# Reference: patent US5861377A, “Antistasin type serine protease inhibitors” (Novartis AG, priority 1994, dated 1999)
# What was measured:
# [1] = biological target: Urokinase (Homo sapiens, UniProt P00749); assay: Inhibition of amidolytic activity of serine proteinases: urokinase; assay type: biochemical; settings: inhibitor 1.3 mM
# Method: (§1) To determine the specificity of hirustasin, its effect on the amidolytic activity of various serine proteinases (see Tab. 3) is determined. Therefore, proteinases are incubated with the inhibitor (1.3 mM) for 15 and for 30 min, and the residual enzyme activities are measured after addition of a suitable substrate. Equilibrium dissociation constants (Ki) for the complexes of hirustasin with individual proteases are determined essentially as described by Bieth (Bull. Europ. Physopat. Resp. (1980), 16, 183-195). Briefly, increasing concentrations of the inhibitor are incubated with a constant concentration of the enzyme; the time necessary to reach equilibration of the enzyme-inhibitor complex is determined for each protease in preliminary experiments. Substrate is then added and the residual enzyme activity measured. Apparent Ki -values are calculated by fitting the steady state velocities to the equation for tight binding inhibitors (Morrison, Biochem. Biophys. Acta (1969), 185, 269-286) using non-linear regression analysis.
# [2] = biological target: Plasma kallikrein (Homo sapiens, UniProt P03952); assay: Inhibition of amidolytic activity of serine proteinases: plasma kallikrein; assay type: biochemical; settings: inhibitor 1.3 mM
# Chain of Plasma kallikrein (P03952 391-638 limits assumed): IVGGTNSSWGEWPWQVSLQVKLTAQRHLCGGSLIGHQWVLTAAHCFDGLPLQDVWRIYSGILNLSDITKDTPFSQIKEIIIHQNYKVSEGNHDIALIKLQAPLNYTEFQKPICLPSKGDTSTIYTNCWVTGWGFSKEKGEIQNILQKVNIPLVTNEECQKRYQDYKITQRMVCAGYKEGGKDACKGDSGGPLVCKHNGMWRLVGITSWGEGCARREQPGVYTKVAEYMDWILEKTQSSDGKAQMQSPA
# Chain of Plasma kallikrein (P03952 20-390 partner limits assumed): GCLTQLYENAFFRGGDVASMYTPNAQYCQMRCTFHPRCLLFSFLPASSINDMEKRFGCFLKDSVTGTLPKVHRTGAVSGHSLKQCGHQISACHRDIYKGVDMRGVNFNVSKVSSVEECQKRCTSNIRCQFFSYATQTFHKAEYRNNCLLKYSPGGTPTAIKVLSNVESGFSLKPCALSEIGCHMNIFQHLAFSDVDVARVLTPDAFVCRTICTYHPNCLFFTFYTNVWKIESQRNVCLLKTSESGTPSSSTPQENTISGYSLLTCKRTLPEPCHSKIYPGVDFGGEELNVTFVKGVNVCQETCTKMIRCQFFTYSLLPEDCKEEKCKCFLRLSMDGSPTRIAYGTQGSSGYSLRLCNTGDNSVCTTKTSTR
# Method: as §1
# [3] = biological target: T1, Thrombin (Homo sapiens, UniProt P00734); assay: Inhibition of amidolytic activity of serine proteinases: thrombin; assay type: biochemical; parameters: effect on proteinase activity: dose or concentration left out as unconfirmed
# T1 construct: the other proteinases tested including human α-thrombin and factor Xa
# Method: as §1, with “(1.3 mM)” left out
# [4] = biological target: Factor Xa (Homo sapiens, UniProt P00742); assay: Inhibition of amidolytic activity of serine proteinases: factor Xa; assay type: biochemical; parameters: effect on proteinase activity: dose or concentration left out as unconfirmed
# Chain of Factor Xa (P00742 235-488 limits assumed): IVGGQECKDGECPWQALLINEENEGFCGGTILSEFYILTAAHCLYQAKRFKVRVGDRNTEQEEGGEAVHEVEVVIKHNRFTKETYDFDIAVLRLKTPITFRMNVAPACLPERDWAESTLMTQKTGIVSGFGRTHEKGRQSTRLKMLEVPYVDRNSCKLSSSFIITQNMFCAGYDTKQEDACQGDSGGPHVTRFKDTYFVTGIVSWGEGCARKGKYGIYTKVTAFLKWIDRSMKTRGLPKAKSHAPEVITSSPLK
# Chain of Factor Xa (P00742 41-179 partner limits assumed): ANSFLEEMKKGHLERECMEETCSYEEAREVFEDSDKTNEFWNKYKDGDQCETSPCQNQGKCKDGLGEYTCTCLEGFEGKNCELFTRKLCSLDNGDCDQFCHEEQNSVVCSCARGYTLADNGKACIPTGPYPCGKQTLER
# Method: as §1, with “(1.3 mM)” left out
# [5] = biological target: Pancreatic elastase (Sus scrofa, UniProt P00772); assay: Inhibition of amidolytic activity of serine proteinases: pancreatic elastase; assay type: biochemical; settings: porcine pancreatic elastase; inhibitor 1.3 mM
# Chain of Pancreatic elastase (P00772 27-266): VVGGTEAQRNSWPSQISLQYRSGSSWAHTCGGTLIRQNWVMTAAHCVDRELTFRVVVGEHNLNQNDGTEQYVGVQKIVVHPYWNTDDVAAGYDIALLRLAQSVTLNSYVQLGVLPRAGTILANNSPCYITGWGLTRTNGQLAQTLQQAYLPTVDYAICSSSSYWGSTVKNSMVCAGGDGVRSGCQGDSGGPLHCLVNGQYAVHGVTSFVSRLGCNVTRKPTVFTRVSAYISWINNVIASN
# Method: as §1
# [6] = biological target: T2, Leukocyte elastase (Homo sapiens, UniProt P08246); assay: Inhibition of amidolytic activity of serine proteinases: leukocyte elastase; assay type: biochemical; settings: inhibitor 1.3 mM
# T2 sequence (P08246 30-267): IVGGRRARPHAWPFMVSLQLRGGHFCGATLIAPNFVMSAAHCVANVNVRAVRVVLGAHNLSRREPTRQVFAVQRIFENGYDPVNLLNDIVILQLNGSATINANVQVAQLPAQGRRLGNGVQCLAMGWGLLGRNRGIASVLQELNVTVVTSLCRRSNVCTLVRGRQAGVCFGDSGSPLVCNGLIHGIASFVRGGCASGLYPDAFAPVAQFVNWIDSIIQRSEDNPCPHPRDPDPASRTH
# Method: as §1
# [7] = biological target: Subtilisin; assay: Inhibition of amidolytic activity of serine proteinases: subtilisin; assay type: biochemical; settings: Bact. subt. subtilisin; inhibitor 1.3 mM
# Method: as §1
# [8] = biological target: Chymase; assay: Inhibition of amidolytic activity of serine proteinases: chymase; assay type: biochemical; settings: porcine chymase; inhibitor 1.3 mM
# Method: as §1
# [9] = system: prothrombin time; assay: In vitro blood coagulation: prothrombin time (Quick)
# Method: (§2) To determine whether hirustasin inhibits the blood coagulation in vitro, its effect on the prothrombin time and the partial thromboplastin time is measured using an Amelung KC10 coagulometer (Lemgo, Germany) and the reagent sets from Behringwerke AG (Marburg, Germany) according to the guidelines of the manufacturers.
# [10] = system: partial thromboplastin time; assay: In vitro blood coagulation: partial thromboplastin time
# Method: as §2
# [11] = system: blood coagulation cascade; assay: Blood coagulation cascade in vitro (general statement)
# Method: as §2
# [12] = biological target: T3, trypsin (Bos taurus, UniProt P00760); assay: Inhibitory activity during purification: amidolytic activity of trypsin; assay type: biochemical; settings: trypsin inhibition; fraction of the isolation step
# T3 sequence (P00760 24-246): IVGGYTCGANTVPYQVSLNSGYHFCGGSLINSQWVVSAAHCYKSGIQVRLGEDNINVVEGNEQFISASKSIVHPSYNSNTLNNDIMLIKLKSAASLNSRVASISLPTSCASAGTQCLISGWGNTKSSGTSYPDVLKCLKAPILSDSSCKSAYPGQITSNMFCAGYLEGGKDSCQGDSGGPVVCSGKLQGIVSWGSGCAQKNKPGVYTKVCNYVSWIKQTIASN
# Method: During the purification procedure inhibitory activity is assayed by measuring the inhibition of the amidolytic activities of trypsin and chymotrypsin. Samples are incubated with trypsin (225 nM) in 50 mM Tris/HCl (pH 7.8), 0.1% (mass/vol) Triton X-100, for 12 min at 25° C. The assay is started by addition of the substrate benzoyl-L-argininep-nitroanilide (0.4 mM, final concentration). The released nitroaniline is monitored photometrically at 405 nm for 3.5 min using an UVIKON 930® photometer (Kontron; Eching, Germany).
# (§3) One inhibition unit (IU) is defined as the amount of inhibitor which reduces the substrate hydrolysis by 1 mmol per min.
# [13] = biological target: chymotrypsin (Bos taurus, UniProt P00766); assay: Inhibitory activity during purification: amidolytic activity of chymotrypsin; assay type: biochemical; settings: chymotrypsin inhibition; fraction of the isolation step
# Excerpt: as §3
Substance,Ki [1] [nM],Ki [2] [nM],"Ki ([3]; human thrombin, inhibitor 1.3 mM) [nM]","effect on proteinase activity ([3]; human α-thrombin, highest concentration used)","effect on proteinase activity ([4]; factor Xa, highest concentration used)","Ki ([4]; human factor Xa, inhibitor 1.3 mM) [nM]",effect on catalytic activity of isolated factor Xa ([4]; isolated factor Xa),Ki [5] [nM],Ki [6] [nM],Ki [7] [nM],Ki [8] [nM],effect on prothrombin time ([9]; concentration of 1.3 mM),"Quick ([9]; hirustasin 1.3 mM, buffer control 79%) [%]",effect on partial thromboplastin time ([10]; concentration of 1.3 mM),"Partial Thromboplastin Time ([10]; hirustasin 1.3 mM, buffer control 47.3 s) [s]",effect on blood coagulation cascade in vitro [11],Trypsin SA [IU/mg] (specific activity) [12],Chymotrypsin SA [IU/mg] (specific activity) [13]
"Hirustasin: polypeptide of SEQ ID NO:1, antistasin-type serine proteinase inhibitor isolated from the medical leech Hirudo medicinalis (TQGNTCGGETCSAAQVCLKGKCVCNEVHCRIRCKYGLKKDENGCEYPCSCAKASQ)",> 1300,> 1300,> 1300,no effect,no effect,> 1300,neither affects,> 1300,> 1300,> 1300,> 1300,no significant effect,80,no significant effect,47.9,neither affects,–,–
"Mono S ®: pooled Mono S fractions, the finally isolated hirustasin (TQGNTCGGETCSAAQVCLKGKCVCNEVHCRIRCKYGLKKDENGCEYPCSCAKASQ; UniProt P80302 1-55, looked up)",–,–,–,–,–,–,–,–,–,–,–,–,–,–,–,–,2.7,0.15
